# “And” between values parts separate entries of the source, which are not always exact repeats. Equal entries are not always repeated. Where two headings read alike, the source gives them in different places.
# Columns and labels:
# all staphylococci tested = assay: MIC by broth microdilution; format: cell-based
# Method: (§1) Daptomycin (Sigma Aldrich) and vancomycin hydrochloride (Sigma Aldrich) were tested following the reference BMD method for each. See CLSI. 2015. Methods for Dilution Antimicrobial Susceptibility Tests for Bacteria That Grow Aerobically, 10th Edition. Clinical and Laboratory Standards Institute, Wayne, Pa.
# S. mitis = assay: MIC by broth microdilution; format: cell-based, Streptococcus mitis; details: S. mitis (viridans), N=18
# Method: (§2) Minimal inhibitory concentrations (MICs) of exebacase against staphylococci were determined by broth microdilution (BMD) using a nonstandard antimicrobial susceptibility testing (AST) medium comprised of cation-adjusted Mueller Hinton broth (caMHB) supplemented with horse serum (Sigma Aldrich) and dithiothreitol (DTT; Sigma Aldrich) to final concentrations of 25% and 0.5 mM, respectively. This medium, referred to as caMHB-HSD, is approved for use in exebacase AST by the Clinical and Laboratory Standards Institute (CLSI) (CLSI. 2017, Jan. 16-17. AST Subcommittee Working Group Meetings and Plenary. AST Meeting Files & Resources, clsi.org/education/microbiology/ast/ast-meeting-files-resources/. Additional supplementation with 2.5% lysed red blood cells (Remel™, ThermoFisher) was included for analyses of streptococcal isolates, as recommended by CLSI. See CLSI, 2015. Methods for Dilution Antimicrobial Susceptibility Tests for Bacteria That Grow Aerobically, 10th Edition. Clinical and Laboratory Standards Institute, Wayne, Pa.
# as §1
# S. sanguinis = assay: MIC by broth microdilution; format: cell-based, Streptococcus sanguinis; details: S. sanguinis (viridans), N=15
# Method: as §2, §1
# S. agalactiae = assay: MIC by broth microdilution; format: cell-based, Streptococcus agalactiae; details: S. agalactiae (group B), N=97
# Method: as §2, §1
# S. dysgalactiae = assay: MIC by broth microdilution; format: cell-based, Streptococcus dysgalactiae; details: S. dysgalactiae (group G), N=22
# Method: as §2, §1
# MRSA strain MW2 = assay: Infective endocarditis rabbit model, CF-301 in series with daptomycin (Example 2); format: in vivo, rabbits
# Method: The rational for selection of the daptomycin dose is as follows. Daptomycin pilot dose-response experiments were performed over a range from 1 mg/kg to 10 mg/kg, administered intravenously, once daily for 4 days in the infective endocarditis rabbit model described below, which was caused by the MRSA strain, MW2. FIG. 2 depicts data for individual animals, plotted as treatment regimen versus log10 CFU/g tissue (mean±SEM are shown). From these studies, a daptomycin dose-response was defined. […] In the rabbit infective endocarditis model, a daptomycin-alone dose of 4 mg/kg administered intravenously provided about 0.25 to 1.45 log10 reduction in bacterial burden compared to vehicle-treated controls.
# A well-described indwelling transcarotid artery-to-left ventricle catheter-induced model of aortic valve infective endocarditis was used in rabbits. See Xiong et al., 2011, AAC, 55:P5325-5330. At 48 hours after catheter placement, infective endocarditis was induced by intravenous inoculums of about 2×10^5 CFU (the induction of ID95 of MRSA strain MW2 in this model). […] Daptomycin administration was continued once a day for 4 days. At 24 hours after the last dose of daptomycin, animals were humanely euthanized and cardiac vegetations, kidneys, and spleens were sterilely removed and quantitatively cultured. Bacterial density for each organ for the different treatment groups were calculated as mean log10 CFU/g of tissue (±95% confidence interval).
# [1] = system: MRSA strain MW2 (CA-MRSA; USA400); details: cited from earlier work
# S. epidermidis = assay: MIC by broth microdilution; format: cell-based, Staphylococcus epidermidis; details: N=52
# Method: as §2, §1
# Staphylococcus hominis = assay: MIC by broth microdilution; format: cell-based; details: n=2 strains, listed as exebacase
# Method: as §2
# S. pseudintermedius = assay: MIC by broth microdilution; format: cell-based, Staphylococcus pseudintermedius; details: each of n=6 isolates
# Method: as §2
# S. sciuri = assay: MIC by broth microdilution; format: cell-based, Staphylococcus sciuri; details: n=3 isolates
# Method: as §2
# S. simulans = assay: MIC by broth microdilution; format: cell-based, Staphylococcus simulans; details: n=1 isolate
# Method: as §2
# S. hyicus = assay: MIC by broth microdilution; format: cell-based, Staphylococcus hyicus; details: n=1 isolate
# Method: as §2
# S. intermedius = assay: MIC by broth microdilution; format: cell-based, Streptococcus intermedius; details: S. intermedius (viridans), N=10
# Method: as §2, §1
# [2] = system: S. aureus bacteremia/endocarditis; assay: Phase II clinical study, CF-301 plus standard of care antibiotics; format: in vivo, human
# Method: These 116 patients constituted the microbiological intent to treat (mITT) population of a Phase II clinical study and was the primary efficacy analysis population. The primary efficacy endpoint was the clinical responder rate (CRR) at Day 14. Diagnosis and clinical outcomes were determined by a blinded Adjudication Committee.
# [3] = healthy subjects, estimated previously; cited from earlier work
# [4] = CF-301 0.09 mg/kg 1 hour prior to the initial dose of DAP 4 mg/kg IV QD x 4 days
# [5] = CF-301 0.09 mg/kg 2 hours after the initial dose of DAP 4 mg/kg IV QD x 4 days
# [6] = CF-301 0.09 mg/kg 2 hours prior to the initial dose of DAP 4 mg/kg IV QD x 4 days
# [7] = CF-301 0.09 mg/kg 4 hours after the initial dose of DAP 4 mg/kg IV QD x 4 days
# [8] = CF-301 0.09 mg/kg 4 hours prior to the initial dose of DAP 4 mg/kg IV QD x 4 days
# [9] = CF-301 0.09 mg/kg immediately after the initial dose of DAP 4 mg/kg IV QD x 4 days
molecule,measurement,setting,value
"CCCCCCCCCC(=O)N[C@@H](Cc1c[nH]c2ccccc12)C(=O)N[C@H](CC(N)=O)C(=O)N[C@@H](CC(=O)O)C(=O)N[C@@H]1C(=O)NCC(=O)N[C@@H](CCCN)C(=O)N[C@@H](CC(=O)O)C(=O)N[C@H](C)C(=O)N[C@@H](CC(=O)O)C(=O)NCC(=O)N[C@H](CO)C(=O)N[C@@H]([C@H](C)CC(=O)O)C(=O)N[C@@H](CC(=O)c2ccccc2N)C(=O)O[C@@H]1C [DAP, Daptomycin]",MIC Range,all staphylococci tested,0.125 to 2 µg/mL
same,MIC Range,S. mitis,0.125 to 1 µg/mL
same,MIC50,"S. mitis; Streptococcus mitis, read-out: MIC50",0.5 µg/mL
same,MIC90,"S. mitis; Streptococcus mitis, read-out: MIC90",1 µg/mL
same,MIC Range,S. sanguinis,0.06 to 1 µg/mL
same,MIC50,"S. sanguinis; Streptococcus sanguinis, read-out: MIC50",0.25 µg/mL
same,MIC90,"S. sanguinis; Streptococcus sanguinis, read-out: MIC90",1 µg/mL
same,MIC Range,S. agalactiae,0.125 to 0.25 µg/mL
same,MIC50,"S. agalactiae; Streptococcus agalactiae, read-out: MIC50",0.125 µg/mL
same,MIC90,"S. agalactiae; Streptococcus agalactiae, read-out: MIC90",0.25 µg/mL
same,MIC Range,S. dysgalactiae,0.06 to 0.5 µg/mL
same,MIC50,"S. dysgalactiae; Streptococcus dysgalactiae, read-out: MIC50",0.125 µg/mL
same,MIC90,"S. dysgalactiae; Streptococcus dysgalactiae, read-out: MIC90",0.25 µg/mL
same,bacterial burden remaining in treated animals,MRSA strain MW2; daptomycin alone 4 mg/kg intravenously,5-7 log10
same,reduction in bacterial burden compared to vehicle-treated controls,"MRSA strain MW2; daptomycin alone 4 mg/kg intravenously, once daily for 4 days, pilot dose-response",0.25 to 1.45 log10
same,MIC,[1],0.5 µg/mL
"CF-301: anti-staphylococcal lysin encoded within a prophage of the Streptococcus suis genome, SEQ ID NO: 2 with or without initial methionine (protein, listed as Streptococcus suis) MTTVNEALNNVRAQVGSGVSVGNGECYALASWYERMISPDATVGLGAGVGWVSGAIGDTISAKNIGSSYNWQANGWTVSTSGPFKAGQIVTLGATPGNPYGHVVIVEAVDGDRLTILEQNYGGKRYPVRNYYSAASYRQQVVHYITPPGTVAQSAPNLAGSRSYRETGTMTVTVDALNVRRAPNTSGEIVAVYKRGESFDYDTVIIDVNGYVWVSYIGGSGKRNYVATGATKDGKRFGNAWGTFK",MIC50,S. epidermidis,0.5 µg/mL
same,MIC90,S. epidermidis,0.5 µg/mL
same,MIC Range,S. epidermidis,0.125 to 2 µg/mL
same,MIC,Staphylococcus hominis,0.125 µg/mL and 0.25 µg/mL
same,MIC,S. pseudintermedius,0.25 µg/mL
same,MIC,S. sciuri,2 µg/mL
same,MIC,S. simulans,0.125 µg/mL
same,MIC,S. hyicus,0.25 µg/mL
same,MIC50,S. mitis,2 µg/mL
same,MIC90,S. mitis,8 µg/mL
same,MIC Range,S. mitis,0.5 to 64 µg/mL
same,MIC50,S. sanguinis,4 µg/mL
same,MIC90,S. sanguinis,16 µg/mL
same,MIC Range,S. sanguinis,2 to 32 µg/mL
same,MIC50,S. intermedius,0.25 µg/mL
same,MIC90,S. intermedius,0.25 µg/mL
same,MIC Range,S. intermedius,0.06 to 0.5 µg/mL
same,MIC50,S. agalactiae,1 µg/mL
same,MIC90,S. agalactiae,2 µg/mL
same,MIC Range,S. agalactiae,0.25 to 4 µg/mL
same,MIC50,S. dysgalactiae,1 µg/mL
same,MIC90,S. dysgalactiae,2 µg/mL
same,MIC Range,S. dysgalactiae,1 to 2 µg/mL
same,"MRSA density, Mean Log10 CFU/g tissue ± STD, Kidneys",MRSA strain MW2; [4],3.53 ± 0.59 Log10 CFU/g tissue
same,"MRSA density, Mean Log10 CFU/g tissue ± STD, Spleen",MRSA strain MW2; [4],3.55 ± 0.74 Log10 CFU/g tissue
same,"MRSA density, Mean Log10 CFU/g tissue ± STD, Vegetation",MRSA strain MW2; [4],4.16 ± 0.82 Log10 CFU/g tissue
same,"MRSA density, Mean Log10 CFU/g tissue ± STD, Kidneys",MRSA strain MW2; [5],2.29 ± 0.87 Log10 CFU/g tissue
same,"MRSA density, Mean Log10 CFU/g tissue ± STD, Spleen",MRSA strain MW2; [5],2.23 ± 1.09 Log10 CFU/g tissue
same,"MRSA density, Mean Log10 CFU/g tissue ± STD, Vegetation",MRSA strain MW2; [5],2.25 ± 1.39 Log10 CFU/g tissue
same,"MRSA density, Mean Log10 CFU/g tissue ± STD, Kidneys",MRSA strain MW2; [6],3.48 ± 0.47 Log10 CFU/g tissue
same,"MRSA density, Mean Log10 CFU/g tissue ± STD, Spleen",MRSA strain MW2; [6],3.31 ± 0.57 Log10 CFU/g tissue
same,"MRSA density, Mean Log10 CFU/g tissue ± STD, Vegetation",MRSA strain MW2; [6],3.54 ± 0.68 Log10 CFU/g tissue
same,"MRSA density, Mean Log10 CFU/g tissue ± STD, Kidneys",MRSA strain MW2; [7],3.78 ± 0.51 Log10 CFU/g tissue
same,"MRSA density, Mean Log10 CFU/g tissue ± STD, Spleen",MRSA strain MW2; [7],3.49 ± 0.33 Log10 CFU/g tissue
same,"MRSA density, Mean Log10 CFU/g tissue ± STD, Vegetation",MRSA strain MW2; [7],4.31 ± 0.89 Log10 CFU/g tissue
same,"MRSA density, Mean Log10 CFU/g tissue ± STD, Kidneys",MRSA strain MW2; [8],2.97 ± 0.32 Log10 CFU/g tissue
same,"MRSA density, Mean Log10 CFU/g tissue ± STD, Spleen",MRSA strain MW2; [8],3.18 ± 0.35 Log10 CFU/g tissue
same,"MRSA density, Mean Log10 CFU/g tissue ± STD, Vegetation",MRSA strain MW2; [8],3.45 ± 0.63 Log10 CFU/g tissue
same,"MRSA density, Mean Log10 CFU/g tissue ± STD, Kidneys",MRSA strain MW2; [9],2.77 ± 0.65 Log10 CFU/g tissue
same,"MRSA density, Mean Log10 CFU/g tissue ± STD, Spleen",MRSA strain MW2; [9],2.60 ± 0.17 Log10 CFU/g tissue
same,"MRSA density, Mean Log10 CFU/g tissue ± STD, Vegetation",MRSA strain MW2; [9],3.23 ± 0.36 Log10 CFU/g tissue
same,MRSA densities in all three target tissues as compared to the controls and daptomycin alone,"MRSA strain MW2; single dose of CF-301 added to daptomycin regimen, all time-points tested",significantly reduced
same,hypersensitivity,[2]; CF-301 treatment group,no reports of hypersensitivity
same,incidence of treatment emergent adverse events (TEAEs),[2]; CF-301 treatment group,88.9%
same,serious TEAEs,[2]; CF-301 treatment group,47.2%
same,CRR higher than in patients treated with standard of care antibiotics alone,[2]; MRSA-infected patients,about 40%
same,CRR,"[2]; MRSA-infected patients, CF-301 and standard of care antibiotics",74.10%
same,tolerability,[2]; addition of CF-301 to a standard of care antibiotic regimen,well-tolerated
same,died,[2]; from study drug administration through 28 days after the end of SOC antibiotic treatment,19.4%
same,clinical responder rate (CRR) at Day 14,"[2]; mITT population, single two hour infusion of CF-301 plus SOC antibiotics",70.4%
same,CRR,[2]; patients with bacteremia alone,81.8%
same,CRR,[2]; subset with bacteremia/right-sided endocarditis,80%
same,effect of age on AUC0-24 or Cmax,covariate on peripheral clearance,less than 4%
same,CL lower than in healthy subjects,patients vs healthy subjects,40%
same,Vd lower than in healthy subjects,patients vs healthy subjects,17%
same,fold higher AUC0-24 or Cmax than patients with normal renal function,"patients with moderate and severe renal impairment, expected from PPK model",1.3 to 2 fold
same,Total volume distribution,"patients, PPK model",20.2 L
same,central compartment (Vc),"patients, PPK model, RSE 8.2%",4.5 L
same,Clearance,"patients, three-compartment PPK model, RSE 5.5%",4.2 Liters (L)/hour (hr)
same,MIC,[1],1.0 µg/mL
same,CL,[3],7.1 L/h
same,volume distribution (Vd),[3],27.7 L
